According to paper doi:10.1101/2024.01.16.575844:

Molecular target: C3b (human) (UniProt P01024)
Experiment: radioligand binding

UniProt P01024, sequence (P01024 whole entry, looked up): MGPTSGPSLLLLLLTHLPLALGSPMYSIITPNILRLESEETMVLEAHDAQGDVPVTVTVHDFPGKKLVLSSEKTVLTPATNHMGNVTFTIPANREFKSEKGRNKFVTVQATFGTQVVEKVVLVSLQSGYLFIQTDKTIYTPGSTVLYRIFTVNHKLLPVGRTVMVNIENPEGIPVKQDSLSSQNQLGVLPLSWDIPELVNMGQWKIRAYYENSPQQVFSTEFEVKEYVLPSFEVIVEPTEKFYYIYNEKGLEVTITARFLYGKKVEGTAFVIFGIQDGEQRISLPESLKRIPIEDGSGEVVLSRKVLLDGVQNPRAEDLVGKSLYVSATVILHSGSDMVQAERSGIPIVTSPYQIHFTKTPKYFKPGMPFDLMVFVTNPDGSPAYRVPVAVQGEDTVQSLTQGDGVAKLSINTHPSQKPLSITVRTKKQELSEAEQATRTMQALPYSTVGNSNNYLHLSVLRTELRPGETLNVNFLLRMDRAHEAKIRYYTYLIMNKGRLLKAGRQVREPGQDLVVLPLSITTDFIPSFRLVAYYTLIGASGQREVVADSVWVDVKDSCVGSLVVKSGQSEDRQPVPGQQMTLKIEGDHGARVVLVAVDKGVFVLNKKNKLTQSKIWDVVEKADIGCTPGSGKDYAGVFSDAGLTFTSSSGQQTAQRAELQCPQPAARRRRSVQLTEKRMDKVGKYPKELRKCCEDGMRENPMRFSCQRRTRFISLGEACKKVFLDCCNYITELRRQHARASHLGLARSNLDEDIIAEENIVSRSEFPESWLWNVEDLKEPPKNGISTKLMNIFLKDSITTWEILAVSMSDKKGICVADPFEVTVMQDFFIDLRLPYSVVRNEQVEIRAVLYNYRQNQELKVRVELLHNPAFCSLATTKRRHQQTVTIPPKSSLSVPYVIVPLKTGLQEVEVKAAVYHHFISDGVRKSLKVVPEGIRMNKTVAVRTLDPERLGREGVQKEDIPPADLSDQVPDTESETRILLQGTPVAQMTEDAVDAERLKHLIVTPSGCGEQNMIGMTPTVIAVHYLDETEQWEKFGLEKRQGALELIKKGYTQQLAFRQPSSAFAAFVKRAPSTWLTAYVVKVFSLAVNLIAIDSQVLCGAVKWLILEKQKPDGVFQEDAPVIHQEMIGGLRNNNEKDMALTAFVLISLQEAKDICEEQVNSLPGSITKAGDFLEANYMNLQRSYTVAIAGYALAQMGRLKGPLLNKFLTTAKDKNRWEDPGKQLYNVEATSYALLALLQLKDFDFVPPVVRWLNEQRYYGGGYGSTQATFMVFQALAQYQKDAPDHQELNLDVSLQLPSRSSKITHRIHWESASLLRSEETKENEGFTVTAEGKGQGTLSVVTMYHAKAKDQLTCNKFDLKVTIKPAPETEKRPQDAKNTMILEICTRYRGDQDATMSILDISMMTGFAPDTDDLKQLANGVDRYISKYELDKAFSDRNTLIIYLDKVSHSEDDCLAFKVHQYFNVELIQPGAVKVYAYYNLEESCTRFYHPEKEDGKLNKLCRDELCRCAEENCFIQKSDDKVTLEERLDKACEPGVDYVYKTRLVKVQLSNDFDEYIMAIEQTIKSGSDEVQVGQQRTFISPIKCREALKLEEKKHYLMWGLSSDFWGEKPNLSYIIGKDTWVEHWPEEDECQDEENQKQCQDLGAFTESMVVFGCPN

complement factor B (natural protein)
binding in 5 mM EDTA as percent of that in 0.2 mM Mg2+: 60 to 70% | percent by which binding in 5 mM Mg2+ exceeds that in 0.02 mM Mg2+: 50% | percent inhibition of 125I-labelled factor B binding to C3b-thiol Sepharose: 100%
